Source: US20230391876A1 (HANALL BIOPHARMA, published 2023)
Numbering of substitutions follows the chain as printed. In names and notes the source's numbering stands.

B1: HL161AN (antibody, human IgG1, V domains shown)
VL: SYVLTQPPSVSVAPGQTARITCGGNNIGSTSVHWYQQKPGQAPVLVVHDDSDRPSGIPERFSGSNSGNTATLTISRVEAGDEADYYCQVRDSSSDHVIFGGGTKLTVLGQPKAAPSVTL
VH: EVQLLESGGGLVQPGGSLRLSCAASEFTFGSCVMTWVRQAPGKGLEWVSVISGSGGSTYYADSVKGRFTISRDNSKNTLYLQMNSLRAEDTAVYYCAKTPWWLRSPFFDYWGQGTLVTVSS
notes: also called HL161AN RS
B2: HL161AN variant No. 1 (LC:N25S, HC:C32S) (antibody, V domains shown)
VL: B1 VL with N25S
VH: B1 VH with C32S
notes: also called HL161ANS; #1 (HL161ANS)
B3: HL161AN variant No. 12 (LC:N25Q, HC:C32S) (antibody, V domains shown)
VL: B1 VL with N25Q
VH: B1 VH with C32S
notes: also called HL161ANQ; #12 (HL161ANQ)
B4: HL161AN variant No. 11 (LC:N25S, HC:C32Y Q82E) (antibody, V domains shown)
VL: B1 VL with N25S
VH: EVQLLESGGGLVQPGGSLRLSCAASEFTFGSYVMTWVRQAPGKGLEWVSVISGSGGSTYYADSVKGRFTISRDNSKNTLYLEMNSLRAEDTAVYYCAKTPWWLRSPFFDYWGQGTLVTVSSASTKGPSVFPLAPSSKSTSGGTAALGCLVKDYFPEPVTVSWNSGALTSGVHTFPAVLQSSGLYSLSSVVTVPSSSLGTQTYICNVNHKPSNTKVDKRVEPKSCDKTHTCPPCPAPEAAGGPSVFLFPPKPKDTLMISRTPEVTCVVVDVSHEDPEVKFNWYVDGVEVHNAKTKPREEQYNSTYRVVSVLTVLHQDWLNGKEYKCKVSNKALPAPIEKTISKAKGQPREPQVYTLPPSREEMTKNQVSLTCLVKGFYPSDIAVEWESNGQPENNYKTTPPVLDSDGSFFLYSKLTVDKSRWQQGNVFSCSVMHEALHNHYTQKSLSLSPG
notes: also called HL161ANSYE; copies: 2 + 2
B5: HL161AN variant No. 2 (LC:N25S, HC:C32Y) (antibody, V domains shown)
VL: B1 VL with N25S
VH: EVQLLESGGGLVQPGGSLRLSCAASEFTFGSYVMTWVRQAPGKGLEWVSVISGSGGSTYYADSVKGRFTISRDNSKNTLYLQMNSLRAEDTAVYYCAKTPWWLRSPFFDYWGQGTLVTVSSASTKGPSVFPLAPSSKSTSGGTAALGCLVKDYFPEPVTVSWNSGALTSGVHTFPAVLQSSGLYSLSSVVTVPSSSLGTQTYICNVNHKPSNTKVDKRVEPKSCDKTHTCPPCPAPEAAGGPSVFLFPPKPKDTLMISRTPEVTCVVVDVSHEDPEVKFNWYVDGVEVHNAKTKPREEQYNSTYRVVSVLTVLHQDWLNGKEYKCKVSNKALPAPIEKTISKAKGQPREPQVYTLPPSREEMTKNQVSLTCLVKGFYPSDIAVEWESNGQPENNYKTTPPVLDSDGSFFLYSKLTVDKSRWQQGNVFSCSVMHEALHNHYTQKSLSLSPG
notes: also called HL161ANSY; copies: 2 + 2
B6: HL161AN variant No. 8 (LC:N25S, HC:C32S Q82E) (antibody, V domains shown)
VL: B1 VL with N25S
VH: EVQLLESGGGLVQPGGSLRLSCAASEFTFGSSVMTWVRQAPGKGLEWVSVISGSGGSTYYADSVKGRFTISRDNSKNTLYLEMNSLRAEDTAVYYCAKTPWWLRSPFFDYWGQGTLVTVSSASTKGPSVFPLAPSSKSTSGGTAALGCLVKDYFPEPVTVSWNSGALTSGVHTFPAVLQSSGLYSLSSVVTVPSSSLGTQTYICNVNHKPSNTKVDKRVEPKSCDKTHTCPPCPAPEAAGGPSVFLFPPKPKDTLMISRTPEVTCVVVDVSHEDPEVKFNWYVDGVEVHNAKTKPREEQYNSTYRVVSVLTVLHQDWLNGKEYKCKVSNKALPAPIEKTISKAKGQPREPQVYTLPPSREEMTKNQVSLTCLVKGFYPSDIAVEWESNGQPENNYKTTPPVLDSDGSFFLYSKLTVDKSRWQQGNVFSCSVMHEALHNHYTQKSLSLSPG
notes: also called HL161ANSE; copies: 2 + 2
B7: HL161AN variant No. 13 (LC:N25Q, HC:C32Y) (antibody, V domains shown)
VL: B1 VL with N25Q
VH: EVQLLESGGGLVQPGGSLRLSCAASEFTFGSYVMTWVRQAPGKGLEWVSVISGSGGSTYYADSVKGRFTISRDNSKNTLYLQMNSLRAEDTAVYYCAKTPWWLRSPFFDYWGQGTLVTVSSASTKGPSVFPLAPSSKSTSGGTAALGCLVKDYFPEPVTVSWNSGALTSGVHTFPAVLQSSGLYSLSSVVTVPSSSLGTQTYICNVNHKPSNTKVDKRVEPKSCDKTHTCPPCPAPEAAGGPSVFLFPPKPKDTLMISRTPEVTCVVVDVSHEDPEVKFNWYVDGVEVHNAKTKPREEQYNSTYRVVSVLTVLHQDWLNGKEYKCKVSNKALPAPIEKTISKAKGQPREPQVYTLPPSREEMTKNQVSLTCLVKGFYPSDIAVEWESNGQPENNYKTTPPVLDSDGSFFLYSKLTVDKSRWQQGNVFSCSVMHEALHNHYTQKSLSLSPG
notes: also called HL161ANQY; copies: 2 + 2
B8: HL161AN variant No. 19 (LC:N25Q, HC:C32S Q82E) (antibody, V domains shown)
VL: B1 VL with N25Q
VH: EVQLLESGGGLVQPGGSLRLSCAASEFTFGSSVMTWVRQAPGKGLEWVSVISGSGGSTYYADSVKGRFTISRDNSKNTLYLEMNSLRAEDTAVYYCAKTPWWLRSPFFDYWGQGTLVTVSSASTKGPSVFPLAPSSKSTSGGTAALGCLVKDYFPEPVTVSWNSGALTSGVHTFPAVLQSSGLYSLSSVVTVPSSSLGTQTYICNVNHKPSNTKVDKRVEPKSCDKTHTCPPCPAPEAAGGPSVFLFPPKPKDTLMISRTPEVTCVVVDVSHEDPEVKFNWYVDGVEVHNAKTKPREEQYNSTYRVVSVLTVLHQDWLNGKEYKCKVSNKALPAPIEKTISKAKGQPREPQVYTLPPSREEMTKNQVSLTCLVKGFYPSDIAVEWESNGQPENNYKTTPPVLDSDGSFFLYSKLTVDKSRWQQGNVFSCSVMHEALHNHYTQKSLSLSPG
notes: also called HL161ANQE; copies: 2 + 2
B9: HL161AN variant No. 22 (LC:N25Q, HC:C32Y Q82E) (antibody, V domains shown)
VL: B1 VL with N25Q
VH: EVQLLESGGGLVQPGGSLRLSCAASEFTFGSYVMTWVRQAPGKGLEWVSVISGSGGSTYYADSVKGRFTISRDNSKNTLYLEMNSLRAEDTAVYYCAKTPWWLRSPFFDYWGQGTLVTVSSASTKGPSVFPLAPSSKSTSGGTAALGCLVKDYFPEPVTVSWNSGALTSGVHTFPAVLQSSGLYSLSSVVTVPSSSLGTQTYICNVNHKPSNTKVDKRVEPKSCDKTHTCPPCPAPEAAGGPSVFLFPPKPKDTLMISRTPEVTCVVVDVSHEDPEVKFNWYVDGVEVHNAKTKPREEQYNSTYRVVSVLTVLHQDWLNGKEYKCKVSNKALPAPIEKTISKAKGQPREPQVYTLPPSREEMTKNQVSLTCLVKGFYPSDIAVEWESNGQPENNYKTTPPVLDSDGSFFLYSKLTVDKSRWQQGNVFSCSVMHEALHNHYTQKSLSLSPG
notes: also called HL161ANQYE; copies: 2 + 2
B10: HL161AN variant No. 21 (LC:N25Q, HC:C32Y Q82T) (antibody, human IgG1, V domains shown)
VL: B1 VL with N25Q
VH: B1 VH with C32Y, Q82T
notes: Variable domains only

The binders below were run against T1, hFcRn on hFcRn-expressing HEK293 cells (human, UniProt P55899 24-365; P61769 21-119) (assay: FACS on hFcRn HEK293 cells, 10 nM antibody, pH 7.4, high concentration sample).
T1 construct: whole, on cells; also called hFcRn HEK293
T1 sequence (P55899 24-365 limits assumed, chain 1 of 2): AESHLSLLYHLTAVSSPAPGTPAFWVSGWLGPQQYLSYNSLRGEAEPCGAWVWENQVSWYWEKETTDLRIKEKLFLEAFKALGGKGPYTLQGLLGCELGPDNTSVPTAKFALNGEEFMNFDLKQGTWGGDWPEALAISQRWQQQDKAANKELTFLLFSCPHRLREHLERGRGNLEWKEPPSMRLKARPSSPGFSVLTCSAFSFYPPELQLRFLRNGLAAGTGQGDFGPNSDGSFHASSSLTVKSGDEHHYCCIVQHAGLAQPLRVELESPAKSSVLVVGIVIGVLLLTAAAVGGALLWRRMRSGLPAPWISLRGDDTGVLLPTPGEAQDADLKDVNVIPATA
T1 sequence (P61769 21-119 limits assumed, chain 2 of 2): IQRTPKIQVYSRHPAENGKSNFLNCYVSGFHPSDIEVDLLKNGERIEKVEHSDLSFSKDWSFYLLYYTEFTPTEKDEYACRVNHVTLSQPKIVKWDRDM
Experimental: (§1) The analysis of hFcRn binding using FACS was carried out under two conditions of pH 6.0 and pH 7.4. hFcRn-expressing 1TEK293 (hFcRn HEK293) cells were diluted with the reaction buffer (0.0500 BSA in PBS, pH 6.0 or pH 7.4) and prepared in duplicate in a 96 well plate at 1×10⁵ cells for each sample. In addition, each antibody sample was diluted with the reaction buffer to 10 nM, and then put into a 96 well plate, and incubated at 4° C. for 90 minutes. Thereafter, the plate was centrifuged to remove the supernatant, and then Alexa488-goat anti-hIgG Ab (1:200) was added thereto, and again incubated at 4° C. for 90 minutes. After the reaction was completed, it was centrifuged to remove the supernatant, and 200 μL of the reaction buffer was added to resuspend the cell pellet, and then the MFI value was measured in a FACS instrument.

| Binder | MFI [MFI] |
| --- | --- |
| B1 | 7160 |
| B2 | 6730 |
| B3 | 7700 |
| B4 | 6570 |
| B5 | 7000 |
| B6 | 7060 |
| B7 | 7940 |
| B8 | 7910 |
| B9 | 7080 |

What follows are binders tested against T1, hFcRn on hFcRn-expressing HEK293 cells (assay: FACS on hFcRn HEK293 cells, 10 nM antibody, pH 7.4).
Experimental: as §1

| Binder | MFI [MFI] |
| --- | --- |
| B1 | 6150 |
| B2 | 6460 |
| B3 | 6940 |
| B10 | 6030 |
| B4 | 6320 |
| B5 | 6200 |
| B6 | 6760 |
| B7 | 6730 |
| B8 | 6470 |
| B9 | 5860 |

The binders below were run against T1, hFcRn on hFcRn-expressing HEK293 cells (assay: FACS on hFcRn HEK293 cells, 10 nM antibody, pH 6.0, high concentration sample).
Experimental: as §1

| Binder | MFI [MFI] |
| --- | --- |
| B1 | 2950 |
| B2 | 3270 |
| B3 | 3390 |
| B4 | 3450 |
| B5 | 3410 |
| B6 | 3130 |
| B7 | 3330 |
| B8 | 3240 |
| B9 | 3020 |

The binders below were run against T2, shFcRn (soluble human FcRn) (human, UniProt P55899 24-297; P61769 21-119) (assay: SPR, shFcRn immobilized on chip, antibody as analyte, pH 6.0;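 note: kinetics fitted with a 1:1 Langmuir model, association 200 s and dissociation 600 s, samples diluted in PBST, double-referenced signals, values averaged across three shFcRn-coated cells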).
T2 construct: extracellular domain; Printed only as 'soluble human FcRn'; also called hFcRn (immobilized on a chip)
T2 sequence (P55899 24-297 limits assumed, chain 1 of 2): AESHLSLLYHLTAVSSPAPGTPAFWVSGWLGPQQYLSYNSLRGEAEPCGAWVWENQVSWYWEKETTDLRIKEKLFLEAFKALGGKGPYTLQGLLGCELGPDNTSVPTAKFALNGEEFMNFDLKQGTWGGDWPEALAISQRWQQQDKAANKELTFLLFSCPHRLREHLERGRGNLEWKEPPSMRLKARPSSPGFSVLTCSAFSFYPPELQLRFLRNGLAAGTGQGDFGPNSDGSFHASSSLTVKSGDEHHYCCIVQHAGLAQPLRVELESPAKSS
T2 sequence (P61769 21-119 limits assumed, chain 2 of 2): as the sequence (P61769 21-119 limits assumed, chain 2 of 2) above
Experimental: (§2) Kinetic analysis was performed using a 1:1 Langmuir binding model, and the average KD value was obtained by repeating the analysis 6 times in each condition of pH 6.0 and pH 7.4.
(§3) Chip activation was performed under EDAC/NHS 0.5×, 30 μL/min, and 300 sec conditions. Thereafter, shFcRn was prepared at 2 μg/mL, 250 μL using an acetate buffer (pH 5.5), and immobilization was performed while flowing at 30 μL/min. The reaction was stopped when the immobilization level corresponded to 200 RU to 300 RU. Thereafter, deactivation was performed using ethanolamine at 30 μL/min, 300 sec. […] Sample dilution was performed using 1×PBST (pH 7.4) or 1×PBST (pH 6.0) buffer depending on the analysis pH. In the sample analysis conditions, association was carried out by reaction at 50 μL/min, 200 sec, and dissociation was carried out by reaction at 50 μL/min, 600 sec. Thereafter, reaction was carried out using a glycine buffer (pH 2.0) at 100 μL/min, 18 sec to perform regeneration. For kinetic analysis, samples were prepared and reacted once in three cells to which shFcRn was immobilized. Then three kinetic values were obtained, and then an average KD value was measured. When analyzing reaction signals, interspot-referencing and signals in which only buffer was analyzed were used for a double-referencing.

| Binder | Kd [nM] | koff [s⁻¹] | kon [M⁻¹ s⁻¹] |
| --- | --- | --- | --- |
| B1 | 0.116 | – | – |
| B2 | 0.129 | 0.000463 | 3.58e+06 |
| B3 | 0.181 | 0.000549 | 3.02e+06 |
| B10 | 0.206 | 0.000552 | 2.67e+06 |
| B4 | 0.19 | 0.000486 | 2.56e+06 |
| B5 | 0.149 | 0.000433 | 2.91e+06 |
| B6 | 0.158 | 0.000477 | 3.02e+06 |
| B7 | 0.2 | 0.000556 | 2.77e+06 |
| B8 | 0.275 | 0.000575 | 2.09e+06 |
| B9 | 0.264 | 0.000522 | 1.98e+06 |

These binders were tested against T2, shFcRn (soluble human FcRn) (assay: SPR, hFcRn immobilized on chip, pH 7.4).
Experimental: as §2, §3

| Binder | Kd [nM] |
| --- | --- |
| B1 | 0.27 |
| B2 | 0.12 |
| B3 | 0.21 |
| B10 | 0.3 |
| B4 | 0.28 |
| B5 | 0.2 |
| B6 | 0.28 |
| B7 | 0.32 |
| B8 | 0.36 |
| B9 | 0.3 |

What follows are binders tested against T1, hFcRn on hFcRn-expressing HEK293 cells (assay: FACS on hFcRn HEK293 cells, pH 6.0; head prints 'FACS binding (EC50, nM)', taken as blocking of competitor Alexa488-hIgG1 (Example 4.5)).
Experimental: (§4) 1×10⁷ hFcRn HEK293 cells were seeded into a T75 flask and cultured for 24 hours. After culturing, the cells were removed and placed in a 96 well plate at 1×10⁵ cells for each sample in duplicate. […] After the reaction was completed, it was centrifuged to remove the supernatant. 200 μL of the reaction buffer was added to resuspend the cell pellet, and then the MFI value was measured in a FACS instrument.

| Binder | EC50 [nM] |
| --- | --- |
| B1 | 1.83 |
| B2 | 1.44 |
| B3 | 1.65 |
| B10 | 1.11 |
| B4 | 1.36 |
| B5 | 1.27 |
| B6 | 1.47 |
| B7 | 1.38 |
| B8 | 1.14 |
| B9 | 1.3 |

What follows are binders tested against T2, shFcRn (soluble human FcRn) (assay: SPR, hFcRn immobilized on chip, pH 6.0).
Experimental: as §2, §3

| Binder | Kd [nM] |
| --- | --- |
| B2 | 0.12 |
| B3 | 0.18 |
| B10 | 0.18 |
| B4 | 0.14 |
| B5 | 0.1 |
| B6 | 0.14 |
| B7 | 0.21 |
| B8 | 0.32 |
| B9 | 0.21 |

What follows are binders tested against T1, hFcRn on hFcRn-expressing HEK293 cells (assay: FACS on hFcRn HEK293 cells, 10 nM antibody, pH 6.0).
Experimental: as §1

| Binder | MFI [MFI] |
| --- | --- |
| B1 | 2720 |
| B2 | 2720 |
| B3 | 2770 |
| B10 | 2430 |
| B4 | 2580 |
| B5 | 2500 |
| B6 | 2830 |
| B7 | 2600 |
| B8 | 2640 |
| B9 | 2390 |

Each binder was assayed against T1, hFcRn on hFcRn-expressing HEK293 cells (assay: FACS on hFcRn HEK293 cells, pH 6.0, high concentration sample; head prints 'FACS binding (EC50, nM)', taken as blocking of competitor Alexa488-hIgG1 (Example 5.5)).
Experimental: as §4
The evaluation of hFcRn blocking was performed at 0.1 nM, 1 nM, 10 nM, and 100 nM using FACS.

| Binder | EC50 [nM] |
| --- | --- |
| B1 | 0.91 |
| B2 | 0.69 |
| B3 | 0.69 |
| B4 | 0.62 |
| B5 | 0.54 |
| B6 | 0.6 |
| B7 | 0.66 |
| B8 | 0.62 |
| B9 | 0.71 |

These binders were tested against T2, shFcRn (soluble human FcRn) (assay: SPR, shFcRn immobilized on chip, antibody as analyte, pH 7.4;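 note: kinetics fitted with a 1:1 Langmuir model, association 200 s and dissociation 600 s in PBST, double-referenced against buffer-only and interspot signals, values averaged over repeated runs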).
Experimental: as §2, §3

| Binder | Kd [nM] | koff [s⁻¹] | kon [M⁻¹ s⁻¹] |
| --- | --- | --- | --- |
| B1 | 0.294 | – | – |
| B2 | 0.122 | 0.000392 | 3.22e+06 |
| B3 | 0.209 | 0.000499 | 2.38e+06 |
| B10 | 0.209 | 0.000499 | 2.39e+06 |
| B4 | 0.262 | 0.000487 | 1.86e+06 |
| B5 | 0.207 | 0.000435 | 2.1e+06 |
| B6 | 0.218 | 0.000496 | 2.27e+06 |
| B7 | 0.236 | 0.000444 | 1.88e+06 |
| B9 | 0.381 | 0.000647 | 1.7e+06 |
